According to article PMC11969553, “Expression of Human β3GalT5–1 in Insect Cells as Active Glycoforms for the Efficient Synthesis of Cancer-Associated Globo-Series Glycans” (Journal of the American Chemical Society, 2025):

Key:
[1] = galactosyltransferase activity assay (Figure S6E); details: control: untreated Sf9-expressed enzyme (paucimannose glycoforms)
[2] = Michaelis–Menten kinetics by UDP release; details: glycan changed form; control: Sf9 insect cell-expressed enzyme (paucimannose)
[3] = substrate: C=CCO[C@@H]1O[C@H](CO)[C@@H](O[C@@H]2O[C@H](CO)[C@H](O[C@H]3O[C@H](CO)[C@H](O)[C@H](O[C@@H]4O[C@H](CO)[C@H](O)[C@H](O)[C@H]4NC(C)=O)[C@H]3O)[C@H](O)[C@H]2O)[C@H](O)[C@H]1O; test: UDP release, Michaelis-Menten fit; format: biochemical, Homo sapiens; details: 0.1 mM UDP-Gal, HEPES, 0.1 mM MnCl2, 0-4 mM substrate; pH 7.0
Text: UDP release, Michaelis-Menten fit on soluble β3GalT5-1 (insect)

[4] = substrate: O=c1ccn([C@@H]2O[C@H](COP(=O)(O)OP(=O)(O)O[C@H]3O[C@H](CO)[C@H](O)[C@H](O)[C@H]3O)[C@@H](O)[C@H]2O)c(=O)[nH]1; test: UDP release, Michaelis-Menten fit; format: biochemical, Homo sapiens; details: 2 mM Gb4 glycan fixed, 20 mM HEPES pH 7.4, 0.1 mM MnCl2
Text: (§1) UDP release, Michaelis-Menten fit on soluble β3GalT5-1 (HEK293)

[5] = substrate: C=CCO[C@@H]1O[C@H](CO)[C@@H](O[C@@H]2O[C@H](CO)[C@H](O[C@H]3O[C@H](CO)[C@H](O)[C@H](O[C@@H]4O[C@H](CO)[C@H](O)[C@H](O)[C@H]4NC(C)=O)[C@H]3O)[C@H](O)[C@H]2O)[C@H](O)[C@H]1O; test: UDP release, Michaelis-Menten fit; format: biochemical, Homo sapiens; details: 10 mM UDP-sugar (UDP-Gal) fixed, 20 mM HEPES pH 7.4, 0.1 mM MnCl2
Text: as §1

B1: β3GalT5–1 (soluble domain): PNGase F (protein)
parent chain: MAFPKMRLMYICLLVLGALCLYFSMYSLNPFKEQSFVYKKDGNFLKLPDTDCRQTPPFLVLLVTSSHKQLAERMAIRQTWGKERMVKGKQLKTFFLLGTTSSAAETKEVDQESQRHGDIIQKDFLDVYYNLTLKTMMGIEWVHRFCPQAAFVMKTDSDMFINVDYLTELLLKKNRTTRFFTGFLKLNEFPIRQPFSKWFVSKSEYPWDRYPPFCSGTGYVFSGDVASQVYNVSKSVPYIKLEDVFVGLCLERLNIRLEELHSQPTFFPGGLRFSVCLFRRIVACHFIKPRTLLDYWQALENSRGEDCPPV
[1]; glycan lost
  enzymatic_activity, fold_change: decreases

B2: β3GalT5–1 (soluble domain): kifunensine (high mannose glycoforms) (protein)
parent chain: MAFPKMRLMYICLLVLGALCLYFSMYSLNPFKEQSFVYKKDGNFLKLPDTDCRQTPPFLVLLVTSSHKQLAERMAIRQTWGKERMVKGKQLKTFFLLGTTSSAAETKEVDQESQRHGDIIQKDFLDVYYNLTLKTMMGIEWVHRFCPQAAFVMKTDSDMFINVDYLTELLLKKNRTTRFFTGFLKLNEFPIRQPFSKWFVSKSEYPWDRYPPFCSGTGYVFSGDVASQVYNVSKSVPYIKLEDVFVGLCLERLNIRLEELHSQPTFFPGGLRFSVCLFRRIVACHFIKPRTLLDYWQALENSRGEDCPPV
[1]; glycan changed form
  enzymatic_activity, fold_change: increases

B3: β3GalT5–1 (soluble domain): kifunensine then Endo-H (mono-GlcNAc) (protein)
parent chain: MAFPKMRLMYICLLVLGALCLYFSMYSLNPFKEQSFVYKKDGNFLKLPDTDCRQTPPFLVLLVTSSHKQLAERMAIRQTWGKERMVKGKQLKTFFLLGTTSSAAETKEVDQESQRHGDIIQKDFLDVYYNLTLKTMMGIEWVHRFCPQAAFVMKTDSDMFINVDYLTELLLKKNRTTRFFTGFLKLNEFPIRQPFSKWFVSKSEYPWDRYPPFCSGTGYVFSGDVASQVYNVSKSVPYIKLEDVFVGLCLERLNIRLEELHSQPTFFPGGLRFSVCLFRRIVACHFIKPRTLLDYWQALENSRGEDCPPV
[1]; glycan lost
  enzymatic_activity, fold_change: increases

B4: β3GalT5–1 (soluble domain): expression in HEK293 (complex-type glycoforms) (protein)
parent chain: MAFPKMRLMYICLLVLGALCLYFSMYSLNPFKEQSFVYKKDGNFLKLPDTDCRQTPPFLVLLVTSSHKQLAERMAIRQTWGKERMVKGKQLKTFFLLGTTSSAAETKEVDQESQRHGDIIQKDFLDVYYNLTLKTMMGIEWVHRFCPQAAFVMKTDSDMFINVDYLTELLLKKNRTTRFFTGFLKLNEFPIRQPFSKWFVSKSEYPWDRYPPFCSGTGYVFSGDVASQVYNVSKSVPYIKLEDVFVGLCLERLNIRLEELHSQPTFFPGGLRFSVCLFRRIVACHFIKPRTLLDYWQALENSRGEDCPPV
[2]
  enzymatic_activity, kcat_Km: no change, 5.2 ± 3.0 vs 5.3 ± 1.0

B5: soluble β3GalT5-1 (insect) (Homo sapiens) (protein)
chain: NPFKEQSFVYKKDGNFLKLPDTDCRQTPPFLVLLVTSSHKQLAERMAIRQTWGKERMVKGKQLKTFFLLGTTSSAAETKEVDQESQRHGDIIQKDFLDVYYNLTLKTMMGIEWVHRFCPQAAFVMKTDSDMFINVDYLTELLLKKNRTTRFFTGFLKLNEFPIRQPFSKWFVSKSEYPWDRYPPFCSGTGYVFSGDVASQVYNVSKSVPYIKLEDVFVGLCLERLNIRLEELHSQPTFFPGGLRFSVCLFRRIVACHFIKPRTLLDYWQALENSRGEDCPPV
notes: crystal: Phe31-Pro308 stated, Asp41-Pro308 visible
[3]
  Km: 660 ± 400 µM
  kcat: 0.0583 ± 0.00667 s⁻¹
  kcat/Km: 88.3 ± 16.7 M⁻¹ s⁻¹

B6: soluble β3GalT5-1 (HEK293) (Homo sapiens; Q69M) (protein)
chain: NPFKEQSFVYKKDGNFLKLPDTDCRQTPPFLVLLVTSSHKMLAERMAIRQTWGKERMVKGKQLKTFFLLGTTSSAAETKEVDQESQRHGDIIQKDFLDVYYNLTLKTMMGIEWVHRFCPQAAFVMKTDSDMFINVDYLTELLLKKNRTTRFFTGFLKLNEFPIRQPFSKWFVSKSEYPWDRYPPFCSGTGYVFSGDVASQVYNVSKSVPYIKLEDVFVGLCLERLNIRLEELHSQPTFFPGGLRFSVCLFRRIVACHFIKPRTLLDYWQALENSRGEDCPPV
notes: soluble luminal domain N29-V310, no TM; expressed in HEK293 cells, complex-type N-glycans
[4]
  Km: 210 ± 50 µM
  kcat: 0.0585 ± 0.005 s⁻¹
  kcat/Km: 282 ± 103 M⁻¹ s⁻¹
[5]
  Km: 420 ± 300 µM
  kcat: 0.0107 ± 0.00167 s⁻¹
  kcat/Km: 25.3 ± 8.33 M⁻¹ s⁻¹

B7: soluble β3GalT5-1 (HEK293) (Homo sapiens; Q69A/S66A) (protein)
chain: NPFKEQSFVYKKDGNFLKLPDTDCRQTPPFLVLLVTSAHKALAERMAIRQTWGKERMVKGKQLKTFFLLGTTSSAAETKEVDQESQRHGDIIQKDFLDVYYNLTLKTMMGIEWVHRFCPQAAFVMKTDSDMFINVDYLTELLLKKNRTTRFFTGFLKLNEFPIRQPFSKWFVSKSEYPWDRYPPFCSGTGYVFSGDVASQVYNVSKSVPYIKLEDVFVGLCLERLNIRLEELHSQPTFFPGGLRFSVCLFRRIVACHFIKPRTLLDYWQALENSRGEDCPPV
notes: as for B6
[4]
  Km: 320 ± 90 µM
  kcat: 0.0273 ± 0.00333 s⁻¹
  kcat/Km: 156 ± 45 M⁻¹ s⁻¹
[5]
  Km: 1110 ± 300 µM
  kcat: 0.00783 ± 0.000833 s⁻¹
  kcat/Km: 7 ± 3.33 M⁻¹ s⁻¹

B8: soluble β3GalT5-1 (HEK293) (Homo sapiens; Q69M/S66A) (protein)
chain: NPFKEQSFVYKKDGNFLKLPDTDCRQTPPFLVLLVTSAHKMLAERMAIRQTWGKERMVKGKQLKTFFLLGTTSSAAETKEVDQESQRHGDIIQKDFLDVYYNLTLKTMMGIEWVHRFCPQAAFVMKTDSDMFINVDYLTELLLKKNRTTRFFTGFLKLNEFPIRQPFSKWFVSKSEYPWDRYPPFCSGTGYVFSGDVASQVYNVSKSVPYIKLEDVFVGLCLERLNIRLEELHSQPTFFPGGLRFSVCLFRRIVACHFIKPRTLLDYWQALENSRGEDCPPV
notes: as for B6
[4]
  Km: 270 ± 60 µM
  kcat: 0.0773 ± 0.00667 s⁻¹
  kcat/Km: 284 ± 113 M⁻¹ s⁻¹
[5]
  Km: 1650 ± 400 µM
  kcat: 0.0248 ± 0.00167 s⁻¹
  kcat/Km: 15 ± 6.67 M⁻¹ s⁻¹

B9: soluble β3GalT5-1 (HEK293) (Homo sapiens) (protein)
chain: NPFKEQSFVYKKDGNFLKLPDTDCRQTPPFLVLLVTSSHKQLAERMAIRQTWGKERMVKGKQLKTFFLLGTTSSAAETKEVDQESQRHGDIIQKDFLDVYYNLTLKTMMGIEWVHRFCPQAAFVMKTDSDMFINVDYLTELLLKKNRTTRFFTGFLKLNEFPIRQPFSKWFVSKSEYPWDRYPPFCSGTGYVFSGDVASQVYNVSKSVPYIKLEDVFVGLCLERLNIRLEELHSQPTFFPGGLRFSVCLFRRIVACHFIKPRTLLDYWQALENSRGEDCPPV
notes: as for B6
[4]
  Km: 140 ± 40 µM
  kcat: 0.125 ± 0.0117 s⁻¹
  kcat/Km: 870 ± 293 M⁻¹ s⁻¹
[5]
  Km: 1400 ± 200 µM
  kcat: 0.0448 ± 0.00333 s⁻¹
  kcat/Km: 32 ± 16.7 M⁻¹ s⁻¹

B10: soluble β3GalT5-1 (HEK293) (Homo sapiens; S66A) (protein)
chain: NPFKEQSFVYKKDGNFLKLPDTDCRQTPPFLVLLVTSAHKQLAERMAIRQTWGKERMVKGKQLKTFFLLGTTSSAAETKEVDQESQRHGDIIQKDFLDVYYNLTLKTMMGIEWVHRFCPQAAFVMKTDSDMFINVDYLTELLLKKNRTTRFFTGFLKLNEFPIRQPFSKWFVSKSEYPWDRYPPFCSGTGYVFSGDVASQVYNVSKSVPYIKLEDVFVGLCLERLNIRLEELHSQPTFFPGGLRFSVCLFRRIVACHFIKPRTLLDYWQALENSRGEDCPPV
notes: as for B6
[4]
  Km: 350 ± 100 µM
  kcat: 0.276 ± 0.0417 s⁻¹
  kcat/Km: 781 ± 408 M⁻¹ s⁻¹
[5]
  Km: 1200 ± 200 µM
  kcat: 0.0777 ± 0.005 s⁻¹
  kcat/Km: 64.8 ± 31.7 M⁻¹ s⁻¹

B11: soluble β3GalT5-1 (HEK293) (Homo sapiens; Q69A) (protein)
chain: NPFKEQSFVYKKDGNFLKLPDTDCRQTPPFLVLLVTSSHKALAERMAIRQTWGKERMVKGKQLKTFFLLGTTSSAAETKEVDQESQRHGDIIQKDFLDVYYNLTLKTMMGIEWVHRFCPQAAFVMKTDSDMFINVDYLTELLLKKNRTTRFFTGFLKLNEFPIRQPFSKWFVSKSEYPWDRYPPFCSGTGYVFSGDVASQVYNVSKSVPYIKLEDVFVGLCLERLNIRLEELHSQPTFFPGGLRFSVCLFRRIVACHFIKPRTLLDYWQALENSRGEDCPPV
notes: as for B6
[4]
  Km: 300 ± 50 µM
  kcat: 0.0497 ± 0.00333 s⁻¹
  kcat/Km: 165 ± 63.3 M⁻¹ s⁻¹
[5]
  Km: 1210 ± 300 µM
  kcat: 0.012 ± 0.00117 s⁻¹
  kcat/Km: 10 ± 3.33 M⁻¹ s⁻¹
